# ± gives the half width of the 95% confidence interval.
# Legend:
# [1] = folding stability dG unfold (combined trypsin and chymotrypsin); higher = more stable
# Procedure: (§1)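 Folding stability of de novo designed mini-proteins (<80 aa, no Cys; designed by TrROS, TrMRF, ProteinMPNN and the joint model) was measured by cDNA display proteolysis with trypsin and chymotrypsin. Each protease was used at 11 concentrations in a threefold dilution series plus a no-protease condition. K50 was inferred by Bayesian fitting of sequencing counts, and dG unfold was derived against a sequence-predicted unfolded-state K50 (Tsuboyama et al. method). Sequences shown include variable-length N-terminal GS-type padding (SAGGSAGG...) inside a display construct carrying a PA tag. Rows were kept only if the AF2 dimer inter-PAE was >15, to exclude likely homo-oligomers.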
# [2] = folding stability dG unfold from chymotrypsin proteolysis; higher = more stable
# Procedure: as §1
Sequence,folding stability dG unfold [1] [kcal/mol],folding stability dG unfold [2] [kcal/mol]
SAGGSAGGSAPEPVVAKLVEVVTLPDGTPVLLFVVDHPDGPPELRLSTDALIEGDDLVDPSSAGGSAGGSAG [r3_261_TrMRF],-0.0131 ± 0.2,0.404 ± 0.078
SAGGSAGGSAGGSGSTTPIPATGATLTTETLPDGSPLYTLTDPATGATTTYPPGAPVGLSAGGSAGGSAGGS [r4_158_JUSTAS],< -1,-0.26 ± 0.07
PGEMVPIEWPVKVRVRDPNGPGNKKREVEIPIEYPYPPGQKDPEQMLEMAHELAEELAEKEGPKDVEIEPIS [r1_300_TrROS],-0.474 ± 0.31,0.271 ± 0.13
SAGGSAGGSTADALKDLPPGAKIEVEPHPIPNEDGWVYRQHYIKIEDPNKTVELPVIIPIPLPSAGGSAGGS [r12_892_TrROS],-0.0244 ± 0.37,-0.0369 ± 0.39
MTPEAFAGPGGRPLAELFLARFRRPVLDPETGLPTWEPAGVLVFPRETEPEELAAIFEALPELEEIEIAPAS [r1_132_TrMRF],-0.149 ± 0.22,0.149 ± 0.22
SAGGSAGGLLPDQRVRLRLTRTSPDGEPEEATVELTNIPSSITPSSTLTFPGEGDTWEVEEITTSAGGSAGG [r6_560_TrMRF],< -1,-0.184 ± 0.21
SAGGGSMVVEKPVALPPDTDVEEVAKEVAEELFPEDEKYKIEVERYPDSVRITVYDPKNGKPVIETVDSAGG [r13_724_JUSTAS],< -1,-0.565 ± 0.45
SAGGSAGGGMTGATPTPRTVPLPGDRTATVYERPETGELLVELPGRRLRVSPAALAAGEVALEASAGGSAGG [r6_940_JUSTAS],< -1,0.113 ± 0.22
SAGGMPATLEVRLPDGAGAVGVVRADDPDEIIEAARAIPADAPVVLTTDDPAYGRLFLEAGFDVVTLESAGG [r13_476_TrMRF],-0.138 ± 0.16,0.241 ± 0.066
SAGGSAGGSAGGPIEEILASLPPNATVKVSRVVKLTTPDGSLSSIEVEEVITVKKPEKALSAGGSAGGSAGG [r11_347_JUSTAS],0.287 ± 0.13,0.655 ± 0.02
SAGGSAGGSAGGPIVLKFKTKEEAEEFAKKLKKEIPNIKEVKIEEDPETGEYYLVVVNDSAGGSAGGSAGGS [r10_544_TrMRF],5 ± 0.28,4.86 ± 0.17
SDPLGTPVPLTYRVLLTFPGVSRPFLGPGGVVRSVSVNPTVLVPGPANSYPAVRELAEPLGLSVSVTPLASA [r9_1209_TrMRF],-0.871 ± 0.23,-0.289 ± 0.21
SAGGSAGGSAGGSATVTTTTTSGATITPPALTELPSGYVAVVTPTGDTLNVVIAPKALLSAGGSAGGSAGGS [r4_279_JUSTAS],-0.966 ± 0.49,0.214 ± 0.26
SAGSEVTLEITLTREVPSGKPVTLTETKTVPLAPSVPVEEVIKALKSPEWTAKVTLYTDGTPVTELTLDSAG [r5_278_JUSTAS],0.176 ± 0.069,0.604 ± 0.064
SAGNMTNEQLQERIKEAVREDGWPTYRIKMSGPDGKNMNFQVDFPEERRQKIQKELGWDITEVEPRRYSAGG [r19_50_TrROS],-0.578 ± 0.3,-0.107 ± 0.38
SAGGSAGSVPSIVIESYDPEKGIVTVSYPATGATYTVEVPPGSTSLTVTVTDADGTPRTFTFPLPGSAGGSA [r2_132_JUSTAS],5.36 ± 0.12,5.31 ± 0.1
SAGGSMTVVTVEARPPDSSETTVTPLTETAPDGRPRAISLEEARARLAAEPDRPVTRVTVRPEAAASAGGSA [r2_192_JUSTAS],0.0975 ± 0.15,0.452 ± 0.057
SAGGPISVGEIEHAADNVDNSHQNGDPNEMMELYDEAEEIQDQYEENGDPEVRDEVKKVVERAKRHMGSAGG [r13_137_TrROS],-0.423 ± 0.45,0.364 ± 0.077
SAGGSAGGSAAPEALPPRLVVPRPVLIVDKAPLEEVEVEELRKAAEEFARAVPDAVVLVDEESAGGSAGGSA [r18_499_TrMRF],0.0223 ± 0.23,0.788 ± 0.12
SAGGSAMPRSSVSIVSVERAPDGTVTIPTKTTLTTPDGTVTTEESTVTLEVPPGRELSEEEIKKLLSAGGSA [r15_836_JUSTAS],0.53 ± 0.11,0.983 ± 0.017
SAGGSAGGSAGGVLYLPDDVKVELVEVTPDGVAKLRVYVYEKDDGDPLVPVPGYDPGAGSAGGSAGGSAGGS [r10_934_TrMRF],-0.777 ± 0.48,0.126 ± 0.36
SAGGSAGGSAGMKVKSIKKLSKDPKNGKETFEITIPENGEKVTIETEPGKFEEVKKKLLKSAGGSAGGSAGG [r17_111_JUSTAS],-0.0508 ± 0.13,0.359 ± 0.089
SAGGSALTPAVAERLRELFPDGDLGLKAVKPGEVVVFPNGARNFNTEDAERVVVVLPDGEPLVLDVSAGGSA [r2_166_TrMRF],-0.241 ± 0.23,0.117 ± 0.14
SAGGKLKEAFEKNGYKAYVHPDSPVVTVEFYKPVKLENGEWKPKKLGTKTIEVDGVDLEKAYEILLKESAGG [r13_924_TrMRF],0.402 ± 0.2,0.935 ± 0.29

Sequence,folding stability dG unfold [1] [kcal/mol],folding stability dG unfold [2] [kcal/mol]
SAGGATTERTFTFPSSVSPEEAAAAVAAEAPPGLRVDVAPVATRADPSGVTTTTLRARFTDPAAPAAASAGG [r13_12_JUSTAS],< -1,0.297 ± 0.12
SAGGSAGGMTPEEIRDALAAKLRAADPDVEVRPVRQEGDEVVVVVTRPATGERREVRVPADVPLSAGGSAGG [r6_446_JUSTAS],-0.0965 ± 0.18,0.406 ± 0.19
SAGGSAGGAIAPGEEVEAEVTIVDPLTGKETTAKVTLTVHPTSVTITLPGGKPAVVPAAYVRFGSAGGSAGG [r6_436_TrMRF],-0.535 ± 0.4,-0.176 ± 0.56
SAGGSAGGSAKKLKIPNPDGKTYEMKVEDVDPENNNVMIRNPGNGEPFHFKKSDAKRIAEELSAGGSAGGSA [r18_161_TrROS],< -1,-0.626 ± 0.44
SAGGSAGGAEKIKKKLEELGFEIVKIEKESENKIKIYVKPDNPEKIKEIKEKISSSEVDEIGNESAGGSAGG [r6_83_TrMRF],-0.27 ± 0.17,0.486 ± 0.16
SAGGSMKDIPAEEIAKLFAAKLGYPILDAKVEKNPVKPVYKLYIVVEEKNPGKKFPREITIPSELLSAGGSA [r2_156_TrMRF],-0.0499 ± 0.22,0.196 ± 0.25
SAGGSSSVTEISISRSRQRPDASGRWVTEPVLPPGVYAPTTVVHENGVLTFNTVYDGKPVTETIPLSSAGGS [r16_500_JUSTAS],-0.0547 ± 0.12,0.47 ± 0.13
SAGGSAGGSAGGSMKSVPVITTTTTVLPNGTTVTTTTVNNVTSSGTTSSTTTTVTPSLLSAGGSAGGSAGGS [r4_486_JUSTAS],-0.836 ± 0.22,-0.571 ± 0.15
SAGGSAGGSPPPVPLSTLAVEPDPATGGKFTVLLAYPDGSTRELTSEEEAAALPNFDLERRLASAGGSAGGS [r20_192_JUSTAS],-0.0474 ± 0.21,0.443 ± 0.2
SAGGSAGGSEEVVRTETSTSTTPDGKRVKTTTTTLPTPTTVTTTTVYAPGGEVLETTTTTTAASAGGSAGGS [r12_727_JUSTAS],< -1,-0.123 ± 0.2
SAGGSASVSVTELSPEERAALEAAGVEVPDDRPRVVETRTVTPAGGAVVTVRVLPEPPLSPEELAASAGGSA [r15_322_JUSTAS],-0.127 ± 0.066,0.311 ± 0.013
SAGGSAGGSAGGEARDNGVPTIEIPIPPEFKKGMPAEQMVDQLAKQLPPGVKDIHIEPPPSAGGSAGGSAGG [r7_487_TrROS],0.376 ± 0.13,0.744 ± 0.035
SAGLFDYLHKHNGLVRAALRRNGPPVVIPRLFRIEPDGDTYKLSVPDPDGVPQDWEVLDVEVFKPEDAISAG [r14_427_TrMRF],-0.0844 ± 0.18,0.275 ± 0.19
SAGEVETRTLPDGSVEIRRVERDPNSDQEVETRERVTFDPATGTARVPREVYRGDRWETEERVIALPASAGG [r19_289_JUSTAS],-0.38 ± 0.27,0.456 ± 0.16
SAGGPDPYNLKVEEETYPNPDGGEMKIPKIEIPDGRLKIDMEMRNPGNGKEHEHEITIPVKPGQEIFISAGG [r13_190_TrROS],0.0459 ± 0.21,0.906 ± 0.14
SAGGSAGGSAGEIVIDVEPNMTVEEVKKRIKALAEELKKEKGLEIKKIEIKEGMSVEELLSAGGSAGGSAGG [r17_43_TrROS_Hall],-0.00172 ± 0.13,0.225 ± 0.077
SAGGSAKPGEKLKIRMWNPDGETHEFDVKIPPGVRIRMPDNGQEQTFPPGDEIPFPPNMPIQVEKVSAGGSA [r15_152_TrROS],-0.121 ± 0.29,0.309 ± 0.086
SAGGSAGGSAGGMPPVEIVEIVNSPGKNPVIVLDPATGEPRLIEVPPDVTLTPEMARRESAGGSAGGSAGGS [r10_844_JUSTAS],0.0501 ± 0.2,0.838 ± 0.066
SAGGSAGGSAGYPPVPPAVVQAVVDELPRLGYTPKAVVVGEGPDLPFVLVVADDKVLLVRGSAGGSAGGSAG [r3_395_TrMRF],-0.379 ± 0.14,0.524 ± 0.096
SAGGSAGGSAGGSGMEEIEEKMKKGYTFTVTSSSPNKTYTIKPEEVSKFKDESISVKAESAGGSAGGSAGGS [r4_157_JUSTAS],< -1,-1.4 ± 0.84
SAGGSTVTFSSEEEIAKLKPVLKKGNPTTLYLNEVRERLLPNGEPVLVPRDVTRTITLVNGKLTESETSAGG [r13_835_JUSTAS],< -1,-0.685 ± 0.18
SAGGKKKVVIKVEVKNKKTGKTFEKEIVIEIDENETEEQILEKAKELAKKLAEENGLEVKIVEIKPLSAGGS [r8_312_TrROS_Hall],4.43 ± 0.25,3.84 ± 0.18
SAGGMKAKATFKIPKTFVDPKNNSPKISESEITIEREFKSEEEAKEFVEKIKEELPPELTELVSLELESAGG [r19_209_JUSTAS],< -1,-0.601 ± 0.48

# Reference: the supplement of paper PMC12764529
